Article doi:10.1101/854158 (bioRxiv, 2019)

What was measured:
Assay in all cases: cryo-EM structure
FANCI = target: T1, FANCI (human, UniProt Q9NVI1 1-1328)
T1 sequence: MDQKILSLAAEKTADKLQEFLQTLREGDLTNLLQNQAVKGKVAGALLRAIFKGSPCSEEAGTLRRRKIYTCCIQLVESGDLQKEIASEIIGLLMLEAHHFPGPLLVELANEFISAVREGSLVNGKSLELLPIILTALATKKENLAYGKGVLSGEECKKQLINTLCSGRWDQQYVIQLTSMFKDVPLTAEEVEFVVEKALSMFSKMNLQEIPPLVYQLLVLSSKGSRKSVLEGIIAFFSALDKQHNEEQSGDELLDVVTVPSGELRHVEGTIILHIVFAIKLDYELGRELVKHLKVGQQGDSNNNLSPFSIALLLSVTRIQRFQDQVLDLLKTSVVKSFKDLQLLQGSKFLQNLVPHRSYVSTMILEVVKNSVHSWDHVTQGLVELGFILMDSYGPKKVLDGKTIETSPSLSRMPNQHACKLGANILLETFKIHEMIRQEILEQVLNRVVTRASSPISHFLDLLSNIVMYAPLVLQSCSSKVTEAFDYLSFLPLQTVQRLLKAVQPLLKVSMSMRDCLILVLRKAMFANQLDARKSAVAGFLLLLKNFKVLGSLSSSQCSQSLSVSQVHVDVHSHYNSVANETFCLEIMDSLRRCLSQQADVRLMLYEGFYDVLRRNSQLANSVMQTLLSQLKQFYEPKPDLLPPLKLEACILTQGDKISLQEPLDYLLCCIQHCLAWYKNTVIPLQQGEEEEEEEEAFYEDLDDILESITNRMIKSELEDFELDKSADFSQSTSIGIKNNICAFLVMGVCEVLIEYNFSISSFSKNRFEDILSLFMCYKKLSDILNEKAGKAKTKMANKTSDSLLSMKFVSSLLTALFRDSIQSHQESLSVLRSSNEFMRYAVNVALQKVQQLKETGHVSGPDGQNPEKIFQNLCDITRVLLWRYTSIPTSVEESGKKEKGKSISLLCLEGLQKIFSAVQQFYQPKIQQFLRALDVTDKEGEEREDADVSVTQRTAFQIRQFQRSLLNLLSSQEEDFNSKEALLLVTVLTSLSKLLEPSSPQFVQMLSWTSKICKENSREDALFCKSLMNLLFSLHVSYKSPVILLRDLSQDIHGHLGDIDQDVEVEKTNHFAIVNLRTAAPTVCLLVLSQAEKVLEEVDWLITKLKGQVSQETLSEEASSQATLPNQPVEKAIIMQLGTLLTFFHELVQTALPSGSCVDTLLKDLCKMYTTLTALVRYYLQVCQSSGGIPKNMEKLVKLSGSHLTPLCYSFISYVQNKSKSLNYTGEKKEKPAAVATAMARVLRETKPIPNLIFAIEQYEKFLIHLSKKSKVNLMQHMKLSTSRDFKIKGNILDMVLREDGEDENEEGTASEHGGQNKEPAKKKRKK

FANCC = target: T2, FANCC (human, UniProt Q00597 1-558)
T2 sequence: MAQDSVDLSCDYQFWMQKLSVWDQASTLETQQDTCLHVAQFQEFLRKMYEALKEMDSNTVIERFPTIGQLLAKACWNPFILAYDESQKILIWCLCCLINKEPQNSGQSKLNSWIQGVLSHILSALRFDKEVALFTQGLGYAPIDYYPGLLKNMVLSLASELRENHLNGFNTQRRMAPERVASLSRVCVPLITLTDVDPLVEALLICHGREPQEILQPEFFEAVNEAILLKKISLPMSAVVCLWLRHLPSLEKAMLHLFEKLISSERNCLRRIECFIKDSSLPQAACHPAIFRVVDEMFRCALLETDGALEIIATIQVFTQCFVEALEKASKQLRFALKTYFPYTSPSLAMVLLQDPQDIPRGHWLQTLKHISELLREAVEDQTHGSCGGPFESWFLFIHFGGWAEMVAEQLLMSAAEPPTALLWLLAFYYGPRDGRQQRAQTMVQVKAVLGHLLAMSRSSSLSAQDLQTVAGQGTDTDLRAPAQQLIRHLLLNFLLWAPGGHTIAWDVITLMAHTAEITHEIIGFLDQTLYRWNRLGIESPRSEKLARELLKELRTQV

FANCE = target: T3, FANCE (human, UniProt Q9HB96 1-536)
T3 sequence: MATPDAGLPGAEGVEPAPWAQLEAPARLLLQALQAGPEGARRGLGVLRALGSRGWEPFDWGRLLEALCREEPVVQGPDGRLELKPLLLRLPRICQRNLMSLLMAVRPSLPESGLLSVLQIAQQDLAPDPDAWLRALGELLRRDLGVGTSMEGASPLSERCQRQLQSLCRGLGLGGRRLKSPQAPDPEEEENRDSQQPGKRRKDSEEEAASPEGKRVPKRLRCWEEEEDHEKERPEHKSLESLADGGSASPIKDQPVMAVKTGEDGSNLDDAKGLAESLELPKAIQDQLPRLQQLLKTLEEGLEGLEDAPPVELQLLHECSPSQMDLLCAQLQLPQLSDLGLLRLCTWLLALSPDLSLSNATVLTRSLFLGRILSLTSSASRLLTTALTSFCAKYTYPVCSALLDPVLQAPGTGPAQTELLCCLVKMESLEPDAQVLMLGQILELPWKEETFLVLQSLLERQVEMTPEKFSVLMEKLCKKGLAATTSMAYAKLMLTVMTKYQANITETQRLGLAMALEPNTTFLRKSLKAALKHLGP

binding result (FANCI): binds
binding result (FANCC): binds
binding result (FANCE): binds
B1: FANCL (enzyme)
chain: MAVTEASLLRQCPLLLPQNRSKTVYEGFISAQGRDFHLRIVLPEDLQLKNARLLCSWQLRTILSGYHRIVQQRMQHSPDLMSFMMELKMLLEVALKNRQELYALPPPPQFYSSLIEEIGTLGWDKLVYADTCFSTIKLKAEDASGREHLITLKLKAKYPAESPDYFVDFPVPFCASWTPQSSLISIYSQFLAAIESLKAFWDVMDEIDEKTWVLEPEKPPRSATARRIALGNNVSINIEVDPRHPTMLPECFFLGADHVVKPLGIKLSRNIHLWDPENSVLQNLKDVLEIDFPARAILEKSDFTMDCGICYAYQLDGTIPDQVCDNSQCGQPFHQICLYEWLRGLLTSRQSFNIIFGECPYCSKPITLKMSGRKH
